Laboratory results: PMC3797800, “The Coordination of Cell Growth during Fission Yeast Mating Requires Ras1-GTP Hydrolysis” (PLoS ONE, 2013)

Biological target: T1, CFP-Ras1 (S. pombe, UniProt P08647 1-219)
T1 construct: Ras1, small GTPase of Schizosaccharomyces pombe; ORF amplified from the start codon to the stop codon and cloned behind CFP; also called Ras1-GTP; source: S. pombe (strain JY1618, Δras1Δgap1), expressed from pREP4x (nmt1 promoter), in living cells; not shown: CFP, N-terminal, kept
T1 sequence (looked up): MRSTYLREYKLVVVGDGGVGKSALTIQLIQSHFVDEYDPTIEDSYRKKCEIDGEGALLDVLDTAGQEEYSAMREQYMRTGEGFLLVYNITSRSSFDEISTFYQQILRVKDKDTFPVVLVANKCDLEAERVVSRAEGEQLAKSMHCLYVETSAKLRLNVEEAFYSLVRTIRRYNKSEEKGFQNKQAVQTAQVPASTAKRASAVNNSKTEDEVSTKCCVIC
Test: FRET or BRET; FACS-based FRET (405 nm excitation, 585/42 nm emission), living S. pombe cells co-expressing CFP and YFP fusions; percent of cells with a FRET signal over 0-8 h after 10 μM pheromone
Conditions: partners not purified

B1: Gap1-YFP (natural protein, S. pombe, UniProt P33277 1-766, looked up)
chain: MTKRHSGTLSSSVLPQTNRLSLLRNRESTSVLYTIDLDMESDVEDAFFHLDRELHDLKQQISSQSKQNFVLERDVRYLDSKIALLIQNRMAQEEQHEFAKRLNDNYNAVKGSFPDDRKLQLYGALFFLLQSEPAYIASLVRRVKLFNMDALLQIVMFNIYGNQYESREEHLLLSLFQMVLTTEFEATSDVLSLLRANTPVSRMLTTYTRRGPGQAYLRSILYQCINDVAIHPDLQLDIHPLSVYRYLVNTGQLSPSEDDNLLTNEEVSEFPAVKNAIQERSAQLLLLTKRFLDAVLNSIDEIPYGIRWVCKLIRNLTNRLFPSISDSTICSLIGGFFFLRFVNPAIISPQTSMLLDSCPSDNVRKTLATIAKIIQSVANGTSSTKTHLDVSFQPMLKEYEEKVHNLLRKLGNVGDFFEALELDQYIALSKKSLALEMTVNEIYLTHEIILENLDNLYDPDSHVHLILQELGEPCKSVPQEDNCLVTLPLYNRWDSSIPDLKQNLKVTREDILYVDAKTLFIQLLRLLPSGHPATRVPLDLPLIADSVSSLKSMSLMKKGIRAIELLDELSTLRLVDKENRYEPLTSEVEKEFIDLDALYERIRAERDALQDVHRAICDHNEYLQTQLQIYGSYLNNARSQIKPSHSDSKGFSRGVGVVGIKPKNIKSSNTVKLSSQQLKKESVLLNCTIPEFNVSNTYFTFSSPSTDNFVIAVYQRGHSKVLVEVCICLDDVLQRRYASNPVVDLGFLTFEANKLYHLFEQLFLRK
notes: ORF amplified from the start codon, stop codon removed, cloned in front of YFP; source: S. pombe, expressed from pREP3x (nmt1 promoter), in living cells; not shown: YFP, C-terminal, kept
- fold increase of the percent of cells with a FRET signal, 30 min pheromone against time 0: 2 fold
